Measured values as given in patent US20240182536A1 (MURAL ONCOLOGY, published 2024).

Assays:
Experiment in all cases: cell-based or functional assay
[1] = target: T1, IL-18 receptor (IL-18Rα and IL-18Rβ) (UniProt Q13478 19-541; O95256 20-599, limits assumed)
T1 sequence (looked up) 1: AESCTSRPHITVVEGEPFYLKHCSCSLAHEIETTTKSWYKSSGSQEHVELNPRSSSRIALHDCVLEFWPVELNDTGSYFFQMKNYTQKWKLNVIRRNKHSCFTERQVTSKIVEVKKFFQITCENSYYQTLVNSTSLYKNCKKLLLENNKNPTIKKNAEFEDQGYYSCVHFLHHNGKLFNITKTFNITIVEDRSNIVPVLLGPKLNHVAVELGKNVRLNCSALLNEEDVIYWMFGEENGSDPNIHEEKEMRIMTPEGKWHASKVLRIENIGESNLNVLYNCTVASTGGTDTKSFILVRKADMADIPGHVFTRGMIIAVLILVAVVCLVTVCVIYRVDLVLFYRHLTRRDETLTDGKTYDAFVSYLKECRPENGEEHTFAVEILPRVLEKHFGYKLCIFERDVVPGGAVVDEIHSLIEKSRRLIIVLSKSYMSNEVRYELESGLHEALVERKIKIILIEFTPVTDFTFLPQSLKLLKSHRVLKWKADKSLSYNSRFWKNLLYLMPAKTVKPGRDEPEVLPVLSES
T1 sequence (looked up) 2: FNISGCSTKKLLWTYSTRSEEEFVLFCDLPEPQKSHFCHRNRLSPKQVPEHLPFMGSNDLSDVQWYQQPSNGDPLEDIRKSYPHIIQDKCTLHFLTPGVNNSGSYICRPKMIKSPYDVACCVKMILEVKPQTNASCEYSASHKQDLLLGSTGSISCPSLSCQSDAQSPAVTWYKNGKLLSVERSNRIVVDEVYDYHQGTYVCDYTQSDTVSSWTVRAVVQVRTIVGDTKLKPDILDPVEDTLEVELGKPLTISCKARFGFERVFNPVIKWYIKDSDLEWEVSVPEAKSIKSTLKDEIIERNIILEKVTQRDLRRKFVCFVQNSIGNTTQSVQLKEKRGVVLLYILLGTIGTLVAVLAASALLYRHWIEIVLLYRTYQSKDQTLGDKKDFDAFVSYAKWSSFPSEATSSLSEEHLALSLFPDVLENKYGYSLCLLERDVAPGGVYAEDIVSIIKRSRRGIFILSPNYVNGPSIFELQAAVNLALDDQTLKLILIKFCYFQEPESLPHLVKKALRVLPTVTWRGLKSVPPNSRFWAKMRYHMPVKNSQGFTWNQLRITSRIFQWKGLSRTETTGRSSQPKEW

[2] = target: T2, interleukin 18 binding protein (IL-18BP) (UniProt O95998 31-194)
T2 sequence (looked up): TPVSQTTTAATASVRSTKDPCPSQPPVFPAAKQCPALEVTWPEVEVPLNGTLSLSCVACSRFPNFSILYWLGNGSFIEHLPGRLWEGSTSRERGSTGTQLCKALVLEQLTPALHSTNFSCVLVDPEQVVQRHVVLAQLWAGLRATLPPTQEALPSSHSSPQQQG

[3] = target: T3, human IL-18 binding protein (IL-18BP) (human, UniProt O95998 31-194)
T3 sequence (looked up): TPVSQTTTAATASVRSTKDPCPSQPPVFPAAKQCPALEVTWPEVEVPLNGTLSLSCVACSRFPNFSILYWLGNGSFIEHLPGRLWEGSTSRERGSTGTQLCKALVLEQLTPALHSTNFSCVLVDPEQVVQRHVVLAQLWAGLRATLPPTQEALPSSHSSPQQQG

[4] = target: T4, IL-18 receptors on HEK-Blue IL-18 reporter cells (InvivoGen) (UniProt Q13478 19-541; O95256 20-599)
T4 sequence (looked up) 1: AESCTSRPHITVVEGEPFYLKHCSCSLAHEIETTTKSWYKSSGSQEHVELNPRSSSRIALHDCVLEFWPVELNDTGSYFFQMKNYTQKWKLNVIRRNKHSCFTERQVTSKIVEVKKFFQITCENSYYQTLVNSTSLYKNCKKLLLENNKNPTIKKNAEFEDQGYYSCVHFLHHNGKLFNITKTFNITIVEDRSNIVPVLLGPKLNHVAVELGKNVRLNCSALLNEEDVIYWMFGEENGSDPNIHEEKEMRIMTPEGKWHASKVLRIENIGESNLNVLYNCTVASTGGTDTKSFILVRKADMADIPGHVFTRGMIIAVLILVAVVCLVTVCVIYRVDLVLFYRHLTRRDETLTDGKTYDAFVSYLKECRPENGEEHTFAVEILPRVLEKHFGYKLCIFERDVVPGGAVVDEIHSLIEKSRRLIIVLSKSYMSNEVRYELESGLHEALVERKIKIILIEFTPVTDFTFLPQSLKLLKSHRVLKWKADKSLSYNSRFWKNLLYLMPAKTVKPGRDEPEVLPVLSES
T4 sequence (looked up) 2: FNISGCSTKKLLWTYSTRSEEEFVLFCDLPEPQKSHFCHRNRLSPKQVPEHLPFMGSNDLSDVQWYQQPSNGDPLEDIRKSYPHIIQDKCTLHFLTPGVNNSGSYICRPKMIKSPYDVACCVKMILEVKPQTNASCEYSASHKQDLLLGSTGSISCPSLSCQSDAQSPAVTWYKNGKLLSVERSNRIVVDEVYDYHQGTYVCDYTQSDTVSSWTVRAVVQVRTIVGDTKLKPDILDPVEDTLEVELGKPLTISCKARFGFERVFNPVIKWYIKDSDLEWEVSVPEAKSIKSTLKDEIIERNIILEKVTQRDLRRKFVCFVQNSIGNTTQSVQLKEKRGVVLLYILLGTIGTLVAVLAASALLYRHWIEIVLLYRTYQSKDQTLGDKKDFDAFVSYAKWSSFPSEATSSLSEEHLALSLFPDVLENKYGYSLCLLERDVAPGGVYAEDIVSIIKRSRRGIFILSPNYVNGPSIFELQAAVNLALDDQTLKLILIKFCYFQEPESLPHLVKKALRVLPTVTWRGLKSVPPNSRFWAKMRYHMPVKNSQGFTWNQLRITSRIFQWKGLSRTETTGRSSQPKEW

B1: IL-18 variant G3E, E6H, R27S, D54A, S55T, T63S, N91F, R104S (ligand)
chain: YFEKLHSKLSVIRNLNDQVLFIDQGNSPLFEDMTDSDMRDNAPRTIFIISMYKATQPRGMAVSISVKSEKISTLSSENKIISFKEMNPPDFIKDTKSDIIFFQSSVPGHDNKMQFESSSYEGYFLASEKERDLFKLILKKEDELGDRSIMFTVQNED
[1]
  EC50 (pM) - BP, HEK-blue re-screening: 0.34 pM
[2]
  EC50 (pM) + 100 nM BP, HEK-blue re-screening: 3.01 pM
  Ratio (HEK-blue EC50, + 100 nM BP against - BP): 8.9

B2: IL-18 variant M60K, D157E (ligand)
chain: YFGKLESKLSVIRNLNDQVLFIDQGNRPLFEDMTDSDMRDNAPRTIFIISMYKDSQPRGKAVTISVKSEKISTLSSENKIISFKEMNPPDNIKDTKSDIIFFQRSVPGHDNKMQFESSSYEGYFLASEKERDLFKLILKKEDELGDRSIMFTVQNEE
[3]
  Fold Change (BP/NO BP), 50 nM BP: 1.25 fold
  Fold Change (BP/NO BP), 300 nM BP: 9.04 fold
  HEK-Blue EC50 pM, +50 nM BP: 1.62 pM
  HEK-blue EC50 (pM) + 300 nM BP: 15.1 pM
[4]
  HEK-Blue EC50 pM, NO BP (50 nM BP run): 1.3 pM
  HEK-Blue EC50 pM, NO BP (300 nM BP run): 1.67 pM

B3: IL-18 variant G3Q, E6N (ligand)
chain: YFQKLNSKLSVIRNLNDQVLFIDQGNRPLFEDMTDSDMRDNAPRTIFIISMYKDSQPRGMAVTISVKSEKISTLSSENKIISFKEMNPPDNIKDTKSDIIFFQRSVPGHDNKMQFESSSYEGYFLASEKERDLFKLILKKEDELGDRSIMFTVQNED
[1]
  EC50 (pM) - BP, HEK-blue re-screening: 0.05 pM
[2]
  EC50 (pM) + 100 nM BP, HEK-blue re-screening: 8.61 pM
  Ratio (HEK-blue EC50, + 100 nM BP against - BP): 172

B4: IL-18 variant E6G, D54A, S55K, T63S, N91K, Q114R (ligand)
chain: YFGKLGSKLSVIRNLNDQVLFIDQGNRPLFEDMTDSDMRDNAPRTIFIISMYKAKQPRGMAVSISVKSEKISTLSSENKIISFKEMNPPDKIKDTKSDIIFFQRSVPGHDNKMRFESSSYEGYFLASEKERDLFKLILKKEDELGDRSIMFTVQNED
[1]
  EC50 (pM) - BP, HEK-blue re-screening: 0.1 pM
[2]
  EC50 (pM) + 100 nM BP, HEK-blue re-screening: 2.17 pM
  Ratio (HEK-blue EC50, + 100 nM BP against - BP): 21.7

B5: IL-18 variant G3L, E6Q, D54Y, S55P, T63S, N91S, R104Q (ligand)
chain: YFLKLQSKLSVIRNLNDQVLFIDQGNRPLFEDMTDSDMRDNAPRTIFIISMYKYPQPRGMAVSISVKSEKISTLSSENKIISFKEMNPPDSIKDTKSDIIFFQQSVPGHDNKMQFESSSYEGYFLASEKERDLFKLILKKEDELGDRSIMFTVQNED
[1]
  EC50 (pM) - BP, HEK-blue re-screening: 1.35 pM
[2]
  EC50 (pM) + 100 nM BP, HEK-blue re-screening: 54.7 pM
  Ratio (HEK-blue EC50, + 100 nM BP against - BP): 40.5

B6: IL-18 variant G3Q, E6K, D54S, S55P, T63S, N91S, R104Q (ligand)
chain: YFQKLKSKLSVIRNLNDQVLFIDQGNRPLFEDMTDSDMRDNAPRTIFIISMYKSPQPRGMAVSISVKSEKISTLSSENKIISFKEMNPPDSIKDTKSDIIFFQQSVPGHDNKMQFESSSYEGYFLASEKERDLFKLILKKEDELGDRSIMFTVQNED
[1]
  EC50 (pM) - BP, HEK-blue re-screening: 0.27 pM
[2]
  EC50 (pM) + 100 nM BP, HEK-blue re-screening: 7.45 pM
  Ratio (HEK-blue EC50, + 100 nM BP against - BP): 27.6

B7: IL-18 variant G3E, E6G, N91M, R104A (ligand)
chain: YFEKLGSKLSVIRNLNDQVLFIDQGNRPLFEDMTDSDMRDNAPRTIFIISMYKDSQPRGMAVTISVKSEKISTLSSENKIISFKEMNPPDMIKDTKSDIIFFQASVPGHDNKMQFESSSYEGYFLASEKERDLFKLILKKEDELGDRSIMFTVQNED
[1]
  EC50 (pM) - BP, HEK-blue re-screening: 0.17 pM
[2]
  EC50 (pM) + 100 nM BP, HEK-blue re-screening: 3.49 pM
  Ratio (HEK-blue EC50, + 100 nM BP against - BP): 20.5

B8: IL-18 variant G3Q, E6H, D54N, S55I, T63S, N91V (ligand)
chain: YFQKLHSKLSVIRNLNDQVLFIDQGNRPLFEDMTDSDMRDNAPRTIFIISMYKNIQPRGMAVSISVKSEKISTLSSENKIISFKEMNPPDVIKDTKSDIIFFQRSVPGHDNKMQFESSSYEGYFLASEKERDLFKLILKKEDELGDRSIMFTVQNED
[1]
  EC50 (pM) - BP, HEK-blue re-screening: 0.31 pM
[2]
  EC50 (pM) + 100 nM BP, HEK-blue re-screening: 5.23 pM
  Ratio (HEK-blue EC50, + 100 nM BP against - BP): 16.9
